Measurements from doi:10.1101/2022.08.30.505785 (bioRxiv, 2022).

Target: the molecule itself
Test: SAXS

B1: Oxalyl-CoA synthetase from Saccharomyces cerevisiae, K352D variant (enzyme, S. cerevisiae, UniProt P38137 1-543, looked up)
chain: MTSAATVTASFNDTFSVSDNVAVIVPETDTQVTYRDLSHMVGHFQTMFTNPNSPLYGAVFRQDTVAISMRNGLEFIVAFLGATMDAKIGAPLNPNYKEKEFNFYLNDLKSKAICVPKGTTKLQSSEILKSASTFGCFIVELAFDATRFRVEYDIYSPEDNYKRVIYRSLNNAKFVNTNPVKFPGFARSSDVALILHTSGTTSTPKTVPLLHLNIVRSTLNIANTYKLTPLDRSYVVMPLFHVHGLIGVLLSTFRTQGSVVVPDGFHPKLFWDQFVKYNCNWFSCVPTISMIMLNMPKPNPFPHIRFIRSCSSALAPATFHKLEKEFNAPVLEAYAMTEASHQMTSNNLPPGDRKPGTVGQPQGVTVVILDDNDNVLPPGKVGEVSIRGENVTLGYANNPKANKENFTKRENYFRTGDQGYFDPEGFLVLTGRIKELINRGGEKISPIELDGIMLSHPKIDEAVAFGVPDDMYGQVVQAAIVLKKGEKMTYEELVNFLKKHLASFKIPTKVYFVDKLPKTATGKIQRRVIAETFAKSSRNKSKL
stoichiometry N: 2
